Experimental data taken from patent US20050182242A1, “Global analysis of protein activities using proteome chips” (priority 2001, published 2005).

B1: KCS1: yeast GST-HisX6 fusion protein on proteome chip (protein, UniProt Q12494 1-1050, looked up)
Inositol hexakisphosphate …: MDTSHEIHDKIPDTLREQQQHLRQKESEGCITTLKDLNVPETKKLSSVLHGRKASTYLRIFRDDECLADNNNGVDSNNGGSVTCADKITRSEATPKSVPEGLQVSEKKNNPDTLSSSLSSFILSNHEEPAIKPNKHVAHRNNITETGQGSGEDIAKQQSHQPQVLHHQTSLKPIQNVDEGCISPKSTYQESLHGISEDLTLKPVSSATYYPHKSKADSGYEEKDKMENDIDTIQPATINCASGIATLPSSYNRHTFKVKTYSTLSQSLRQENVNNRSNEKKPQQFVPHSESIKEKPNTFEQDKEGEQADEEEDEGDNEHREYPLAVELKPFTNRVGGHTAIFRFSKRAVCKALVNRENRWYENIELCHKELLQFMPRYIGVLNVRQHFQSKDDFLSDLDQENNGKNDTSNENKDIEVNHNNNDDIALNTEPTGTPLTHIHSFPLEHSSRQVLEKEHPEIESVHPHVKRSLSSSNQPSLLPEVVLNDNRHIIPESLWYKYSDSPNSAPNDSYFSSSSSHNSCSFGERGNTNKLKRRDSGSTMINTELKNLVIREVFAPKCFRRKRNSNTTTMGNHNARLGSSPSFLTQKSRASSHDASNTSMKTLGDSSSQASLQMDDSKVNPNLQDPFLKKSLHEKISNALDGSHSVMDLKQFHKNEQIKHKNSFCNSLSPILTATNSRDDGEFATSPNYISNAQDGVFDMDEDTGNETINMDNHGCHLDSGKNMIIKSLAYNVSNDYSHHDIESITFEETSHTIVSKFILLEDLTRNMNKPCALDLKMGTRQYGVDAKRAKQLSQRAKCLKTTSRRLGVRICGLKVWNKDYYITRDKYFGRRVKVGWQFARVLARFLYDGKTIESLIRQIPRLIKQLDTLYSEIFNLKGYRLYGASLLLMYDGDANKSNSKRKKAANVKVNLIDFARCVTKEDAMECMDKFRIPPKSPNIEDKGFLRGVKSLRFYLLLIWNYLTSDMPLIFDEVEMNDMISEEADSNSFTSATGSKINFNSKWDWLDEFDKEDEEMYNDPNSKLRQKWRKYELIFDAEPRYNDDAQVSD
modifications: GST-HisX6 tag
notes: yeast GST-HisX6 fusion protein on proteome chip
B2: MIS1: yeast GST-HisX6 fusion protein on proteome chip (protein, UniProt P09440 35-975, looked up)
C-1-tetrahydrofolate …: YHILSGRKLAQSIREKANDEIQAIKLKHPNFKPTLKIIQVGARPDSSTYVRMKLKASKDSNVDCIIEKLPAEITEVELLKKISDINDDDSIHGLLIQLPLPRHLDETTITNAVDFKKDVDGFHRYNAGELAKKGGKPYFIPCTPYGCMKLLEEAHVKLDGKNAVVLGRSSIVGNPIASLLKNANATVTVCHSHTRNIAEVVSQADIVIAACGIPQYVKSDWIKEGAVVIDVGINYVPDISKKSGQKLVGDVDFDSVKEKTSYITPVPGGVGPMTVAMLVSNVLLAAKRQFVESEKLPVIKPLPLHLESPVPSDIDISRAQSPKHIKQVAEELGIHSHELELYGHYKAKISPNIFKRLESRENGKYVLVAGITPTPLGEGKSTTTMGLVQALSAHLGKPSIANVRQPSLGPTLGVKGGAAGGGYAQVIPMDEFNLHLTGDIHAISAANNLLAAAIDTRMFHEATQKNDSTFYKRLVPRKKGIRKFTPSMQRRLKRLDIEKEDPDALTPEEVKRFARLNINPDTITIRRVVDINDRMLRQITIGEAATEKGFTRTTGFDITVASELMAILALSKSLHEMKERIGRMVIGADYDNKPVTVEDIGCTGALTALLRDAIKPNLMQTLEGTPVMVHAGPFANISIGASSVIADLMALKLVGSEKNPLNDKNIHEPGYVVTEAGFDFAMGGERFFDIKCRSSGLVPDAVVLVATVRALKSHGGAPNVKPGQSLPKEYTEENIDFVAKGVSNLVKQIENIKTFGIPVVVAINRFETDSQAEIEVIKKAALNAGASHAVTSNHWMEGGKGAVELAHAVVDATKEPKNFNFLYDVNSSIEDKLTSIVQKMYGGAKIEVSPEAQKKIDTYKKQGFGNLPICIAKTQYSLSHDPSLKGVPRGFTFPIRDVRASIGAGYLYALAAEIQTIPGLSTYAGYMAVEVDDDGEIEGLF
modifications: GST-His6 fusion tag
notes: as for B1
B3: HEM14: yeast GST-HisX6 fusion protein on proteome chip (protein, UniProt P40012 1-539, looked up)
Protoporphyrinogen oxidase: MLLPLTKLKPRAKVAVVGGGVSGLCFTYFLSKLRPDVEITLFESQNRTGGWIYSCNTRDMSGNPIMLEKGPRTLRGVSDGTVLIMDTLKDLGKEAVIQSIDKGCIADKKFLLDPSDKLVQVPNSISTTVKFLLNPLGKGLITGMMGEWFRKKSPHPGQDESVESICDRRFGNNYISNNMISALLRGIYGDDVSLLSAKRTFKKIYYNELKHGSNTQAMIDNMRGKSRSKKTENLHQSLTGCLNDYSNAFGKDRSKLLDLSNTLKKYPMLGLAGGLETFPKIVRNALNEFKNVKIVTGNPVTQIMKRPANETTIGLKAKSGDQYETFDHLRLTITPPKIAKLLPKDQNSLSKLLDEIQSNTIILVNYYLPNKDVIDADLQGFGYLVPKSNKNPGKLLGVIFDSVIERNFKPLFDKLSTNPNALNKYTKVTAMIGGCMLNEHGVPVVPSREVTINAVKDALNNHLGISNKDLEAGQWEFTIADRCLPRFHVGYDAWQERAERKLQESYGQTVSVGGMGFSRSPGVPDVIVDGFNDALQLSK
modifications: GST-HisX6 tag
notes: as for B1
B4: GAD1: yeast GST-HisX6 fusion protein on proteome chip (protein, UniProt Q04792 1-585, looked up)
Glutamate decarboxylase: MLHRHGSKQKNFENIAGKVVHDLAGLQLLSNDVQKSAVQSGHQGSNNMRDTSSQGMANKYSVPKKGLPADLSYQLIHNELTLDGNPHLNLASFVNTFTTDQARKLIDENLTKNLADNDEYPQLIELTQRCISMLAQLWHANPDEEPIGCATTGSSEAIMLGGLAMKKRWEHRMKNAGKDASKPNIIMSSACQVALEKFTRYFEVECRLVPVSHRSHHMLDPESLWDYVDENTIGCFVILGTTYTGHLENVEKVADVLSQIEAKHPDWSNTDIPIHADGASGGFIIPFGFEKEHMKAYGMERWGFNHPRVVSMNTSGHKFGLTTPGLGWVLWRDESLLADELRFKLKYLGGVEETFGLNFSRPGFQVVHQYFNFVSLGHSGYRTQFQNSLFVARAFSFELLNSSKLPGCFEIVSSIHESIENDSAPKSVKDYWEHPQAYKPGVPLVAFKLSKKFHEEYPEVPQAILSSLLRGRGWIIPNYPLPKATDGSDEKEVLRVVFRSEMKLDLAQLLIVDIESILTKLIHSYEKVCHHIELASEQTPERKSSFIYEMLLALASPQDDIPTPDEIEKKNKLKETTTRNYRGTC
modifications: GST-His6 tag
notes: as for B1

Legend:
Conditions in all cases: liposome binding signal on yeast proteome chip, Cy3-streptavidin detection
PI(3,4,5)P3 liposomes = assay: Yeast proteome chip probed with PI(3,4,5)P3 liposomes
[1] = tested on: phosphatidylcholine (PC) liposomes; assay: Yeast proteome chip probed with PC liposomes
In short: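 Signal comes from Cy3- or Cy5-streptavidin recognising 1% (w/w) biotin-DHPE carried in every liposome. Liposomes were PC alone or PC containing 5% (w/w) of a single phosphoinositide, applied to arrayed GST-fusion yeast proteins for 1 h at RT.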

PI(4)P liposomes = assay: Yeast proteome chip probed with PI(4)P liposomes
PI(3)P liposomes = assay: Yeast proteome chip probed with PI(3)P liposomes
Description: To identify PI-binding proteins in yeast, liposomes were used as probes because the liposome provides the most relevant physiological condition to assay the interactors. Six types of liposomes were used. Each contains phosphatidylcholine (“PC”) with 1% (w/w) N-(biotinoyl)-1,2-dihexadecanoyl-sn-glycero-3-phosphoethanolamine, triethylammonium salt (biotin DHPE). The biotinylated lipid serves as a label that can be detected by Cy3-streptavidin (21). In addition to PC, the five other liposomes contain either 5% (w/w) PI(3)P, PI(4)P, PI(3,4)P2, PI(4,5)P2, or PI(3,4,5)P3 (FIG. 3A).
The protein-liposome interaction was assayed as follows. Appropriate amounts of each lipid in chloroform were mixed and dried under nitrogen. The lipid mixture was resuspended in TBS buffer by vortexing. The liposomes were created by sonication. Blocked proteome chips were washed three to five times in PBS buffer, and the extra liquid on the glass surface was removed by tapping the slides vertically on a KIMWIPE™. 200 μl of liposome solution was added to the proteome chip and immediately covered by a hydrophobic plastic cover slip (GRACE BIO-LAB™, USA). After trapped air bubbles were removed, the chip was incubated in a humidity chamber at RT for one hour. To remove the cover slip, the chip was immersed into large volume of PBS buffer (50 ml), so that the slip would float away. The chip was then moved to a second PBS bath (>50 ml) and washed 3×5 min with shaking at RT. After removing extra liquid on the surface of the chip, about 100 μl of Cy3 or Cy5 conjugated streptavidin (PIERCE™, USA; 1:2000 to 1:4000 dilution) was added to the surface and covered by a hydrophobic plastic cover slip (GRACE BIO-LABS™, USA). The chip was incubated for greater than 30 min in the dark at RT. The chip was then washed as described above. To completely remove the liquid on the chip, the chip was spun to dryness at 1500-2000 rpm for 5-10 min at RT.
• 1. S. Fields, Y. Kohara, D. J. Lockhart, Proc. Natl. Acad. Sci. 96, 8825 (1999); A. Goffeau et al., Science 274, 563 (1996). • 2 P. Ross-Macdonald et al., Nature 402, 413 (1999); J. L., DeRisi, V. R. Iyer, P. O. Brown, Science 278, 680 (1997); E. A. Winzeler et al., Science 285, 901 (1999). P. Uetz et al., Nature 403, 623 (2000); T. Ito et al., Proc. Natl. Acad. Sci. USA. 97, 1143 (2000) • 3 H. Zhu, M. Snyder, Curr. Opin. Chem. Biol. 5, 40 (2001). • 4 M. R. Martzen et al., Science 286, 1153 (1999). • 5 H. Zhu et al., Nat. Genet. 26, 283 (2000). • 6 G. MacBeath, S. L. Schreiber, Science 289, 1760 (2000). • 7 A. Caveman, J. Cell Sci. 113, 3543 (2000). • 8 P. Arenkov et al., Anal. Biochem 278, 123 (2000). • 9 D. A. Mitchell, T. K. Marshall, R. J. Deschenes, Yeast 9, 715 (1993). The expression vector pEGH was created by inserting an RGS-HisX6 epitope tag between the GST gene and the polycloning site of pEG(KG). The yeast ORFs were cloned using the strategy described previously (5), except every step was done in a 96-well format. Plasmid DNAs confirmed by DNA sequencing were reintroduced into both yeast (Y258) and E. coli (DH5a). […] 0.1 mM calcium was present in buffers in all subsequent steps. The chip was washed three times with PBS at RT. Cy3-conjugated streptavidin (Jackson IR, USA) (1:5000 dilution) was added to the chip and incubated for 30 min at RT. After extensive washing, the chip was spun dry and scanned using a microarray scanner; the data was subsequently acquired with the GENEPIX™ array densitometry software (Axon, USA). • 12 S. S. Hook, A. R. Means, Annu. Rev. Pharmacol. Toxicol.41, 471 (2001). • 13 M. S. Cyert, R. Kunisawa, D. Kaim, J. Thorner, Proc. Natl. Acad. Sci. USA 88, 7376 (1991). • 14 D. A. Stirling, K. A. Welch, M. J. Stark, EMBO J. 13, 4329 (1994). • 15 F. Bohl, Kruse, EMBO J. 19, 5514 (2000); E. Bertrand et al., Mol. Cell 2, 437 (1998). • 16 D. C. Winter, E. Y. Choe, R. Li, Proc. Nat. Acad Sci. USA 96, 7288 (1999). • 17 C.

PI(3,4)P2 liposomes = assay: Yeast proteome chip probed with PI(3,4)P2 liposomes
PI(4,5)P2 liposomes = assay: Yeast proteome chip probed with PI(4,5)P2 liposomes

Molecule | PI(3, 4, 5)P3 (PI(3,4,5)P3 liposomes) | PC [1] | PI(4)P (PI(4)P liposomes) | PI(3)P (PI(3)P liposomes) | PI(3, 4)P2 (PI(3,4)P2 liposomes) | PI(4, 5)P2 (PI(4,5)P2 liposomes)
B1 | 36.22 | 42.85 | 35.27 | 0.00 | 60.91 | –
B2 | 43.65 | 71.02 | 65.32 | 3.50 | 86.34 | –
B3 | 8.55 | 38.15 | 16.11 | 1.00 | 21.03 | –
B4 | – | 24.36 | −1.96 | 51.25 | – | 11.54
